Laboratory results taken from a protein production outcome set (Wang et al. 2014).

Experiment: label from the status in PepcDB records

**Q.** For “MELLCIDYLGKPLRLEGTMAGWQQLFWDNILVAQRPAQEQYEGDIQHHFQLTQGEHVLECCLEIALTWQPFQLQYQTKLNGELVAQGMRSEKDVERQTPYEAPKVERRFSVIGLVSLAMKALKSAKMIKVVMASASLAAYSWLFSFQFALALIGCLVFHEYGHVRAMKYFGMKTKGIYLVPFLGGLALSDEKINTRWQDVVISIMGPCFGFLLSLLLVGVYWVTDSPFWAALAVFNAFLNLFNLLPVLPLDGGHILKSVSFSMNSKMGVILCVLAILGGIALSYSLGLTLFGFLLLMGALDIVFEWRQRHHSHLLPLNRYAQMVSTIWYFALVSGLIAIIIGFASTGDTLLSLPLLILGT”, which protein production is on record?
**A.** failed

**Q.** For “MELLKLNRSVQGTGPGPGASLCRPGAPLLNSSSVGNLSCEPPRIRGAGTRELELAIRITLYAVIFLMSVGGNMLIIVVLGLSRRLRTVTNAFLLSLAVSDLLLAVACMPFTLLPNLMGTFIFGTVICKAVSYLMGVSVSVSTLSLVAIALERYSAICRPLQARVWQTRSHAARVIVATWLLSGLLMVPYPVYTVVQPVGPRVLQCVHRWPSARVRQTWSVLLLLLLFFIPGVVMAVAYGLISRELYLGLRFDGDSDSDSQSRVRNQGGLPGGAGPREQNLGEADVWRATGPAGVGGTEMKVRVRRKLEMELSWERRSGGDWAGDWGDSPFSLTAHPLCSGAVHQNGRCRPETGAVGEDSDGCYVQLPRSRPALELTALTAPGPGSGSRPTQAKLLAKKRVVRMLLVIVVLFFLCWLPVYSANTWRAFDGPGAHRALSGAPISFIHLLSYASACVNPLVYCFMHRRFRQACLETCARCCPRPPRARPRALPDEDPPTPSIASLSRLSYTTISTLGPG”, which protein production is on record?
**A.** failed

**Q.** For “MELLLSKVTDAGIDPSSVSGEEAITLWEHIGRHIASTSREKAHCLIISAEYRREIKQLCDSIEELRQALELLSLPEDVEDILSVKASLSERLVEVGDYNSALTEYIASTNIAVEYGFIDEYVLAIIGMGNLCDAYGDHNRALRYYQKIDAIDHAISSRSLRLRYKLYMLACYISLKRVAEASELLGECEELSILVSDKNLAAQTHLYRAKLHRLQEEYSEALLSISSIKYTTGSATTYWLSTMVKIETAYCLNGVGHTSLANLLLESIGKRIKKHSSPILAKRFYNAMSKVSASQGQFQQALSCEKRAFRIESDLIKHIPISELGAAQLRRLSRFELQLKLILSEIENKELKETTKQHKNTVAQLQQDVFTDPLTSLHNRRWLEVKLKDMLLHDTPFALMVIDIDHFKSINDELSHLVGDKAIKSVSQELAAYFKFKGASCVRFGGEEFLVILENSQLERAEMHAENYRERIFKYAWRDILGERGLTVSIGITLHREGENTQRTFYRADKALYRAKANGRNQVCTEL”, which protein production is on record?
**A.** failed

**Q.** With “MELLNVLAAAFGAFALGSVWYMVLAEPWMQDAKVPRGPDGRPEGGMTPGIFAASFVLQLIVAGMMRHVFALSGIDSPGAGIVAGIGVGLFFIAPWITLNNLYGMRPLRLSLIDGGYATLACAVMGLILTLF” as the sequence, how does the protein production read?
**A.** failed

**Q.** With “MELQDTIFKRQSVRKFKNQDVSDEDILKMIKAAGAAPSGKNIQNWHFVVIKRRDLMEKIADVITKKQQEILVEMDKVSVDKANRFRKFVKNFTLFYLKAPVLVLVFTKVYNPSGYYELELIDAPKETIDKLFIRNPGMQSLGAAIENFTLSAIELGYGSCWLTSQNYAADEIEAVLEAETGFEKGEYFLGAMLALGVPEDNLKSPSKKPVEEICTFIK” as the sequence, how does the protein production read?
**A.** not failed

**Q.** For “MELRDRIDFLCKTILAIKTAGRLVLGIDGLSRSGKTTLANQLSQTLREQGISVCVFHMDDHIVERAKRYHTGNEEWFEYYYLQWDVEWLTHQLFRQLKASHQLTLPFYDHETDTHSKRTVYLSDSDMIMIEGVFLQRKEWRPFFDFVVYLDCPREIRFARENDQVKQNIQKFINRYWKAEDYYLETEEPIKRADVVFDMTS”, which protein production is on record?
**A.** not failed

**Q.** For “MELRPSGDSGSSDVDAEISDGFSPLDTSHRDVADEGSLLRRAEMYQDYMKQVPIPTNRGSLIPFTSWVGLSISMKQLYGQPLHYLTNVLLQRWDQSRFGTDSEEQRLDSIIHPTKAEATIWLVEEIHRLTPSHLHMALLWRSDPMYHSFIDPIFPEK”, which protein production is on record?
**A.** not failed

**Q.** Which protein production does the source give for “MELSAVGERVFAAESIIKRRIRKGRIEYLVKWKGWAIKYSTWEPEENILDSRLIAAFEQKERERELYGPKKRGPKPKTFLLKARAQAEALRISDVHFSVKPSASASSPKLHSSAAVHRLKKDIRRCHRMSRRPLPRPDPQGGSPGLRPPISPFSETVRIINRKVKPREPKRNRIILNLKVIDKGAGGGGAGQGAGALARPKVPSRNRVIGKSKKFSESVLRTQIRHMKFGAFALYKPPPAPLVAPSPGKAEASAPGPGLLLAAPAAPYDARSSGSSGCPSPTPQSSDPDDTPPKLLPETVSPSAPSWREPEVLDLSLPPESAATSKRAPPEVTAAAGPAPPTAPEPAGASSEPEAGDWRPEMSPCSNVVVTDVTSNLLTVTIKEFCNPEDFEKVAAGVAGAAGGGGSIGASK” here?
**A.** failed

**Q.** For “MELSRGASAPDPDDVRPLKPCLLRRNHSRDQHGVAASSLEELRSKACELLAIDKSLTPITLVLAEDGTIVDDDDYFLCLPSNTKFVALACNEKWTYNDSDGGTAWVSQESFEADEPDSRAGVKWKNVARQLKEDLSSIILLSEEDLQALIDIPCAELAQELCQSCATVQGLQSTLQQVLDQREEARQSKQLLELYLQALEKEGNILSNQKESKAALSEELDAVDTGVGREMASEVLLRSQILTTLKEKPAPELSLSSQDLESVSKEDPKALAVALSWDIRKAETVQQACTTELALRLQQVQSLHSLRNLSARRSPLPGEPQRPKRAKRDSS”, which protein production is on record?
**A.** not failed

**Q.** With “MELTTDIGGRSAAGVDRAPAGATSRTALWTGRVLSGLAIAFLAFDALGKLMRAAPVLEGSQQLGYPLDTVVGIGATLLACVVLYAIPRTAALGAILLTGYLGGAVATHVRVGNPLFSHVLFPTYVGALIWGGLVLRDRRLLAALLRGRARAAEEEA” as the sequence, how does the protein production read?
**A.** failed

**Q.** For “MELWLVRHGETLWNREGRLLGWTDLPLTAEGEAQARRLKGALPSLPAFSSDLLRARRTAELAGFSPRLYPELREIHFGALEGALWETLDPRYKEALLRFQGFHPPGGESLSAFQERVFRFLEGLKAPAVLFTHGGVVRAVLRALGEDGLVPPGSAVAVDWPRRVLVRLALDGEEATG”, which protein production is on record?
**A.** not failed

**Q.** For “MENFDEVIKEYQKYLEGKEKTHKINSCKHPCCEEDNLKSVKNYFKVYHKKYIPSIIQKKKKERNEHAPPLLKDIQDKRCTNVFERLNDKQFYTGVQKTKFMELLKNNKNKSSYCYNNIKVFSTMLKKPCNYVVTPGTLGIQKYGIQTGRPKTIFLFNNEKKYDKGVYFLVKSYIKNIKSLCYEITKILQPSIGPTRKIYDQNFSLVRNVNDLINGGKYLCTSGDPPAPIRNLSLHFLT”, which protein production is on record?
**A.** failed

**Q.** With “MENGFFVKINYRIYTTFSEKHGIILSIISKKENPMAIYFGTYTKRESKGIYKANFDSETGQLSNLELVTEEPNPTYLAFDKAGHLYSVGAENGLGGIAAFNTDYTLLNHVVSEGAPLCYVAVDEARDLVYGSNFHKGQLLVYKRLADGSLELADVAQHEGSGPHENQASAHVHFSDLTPDKFLVTCDLGCDQVVTYKVSDQGKVEKIATYQAAPGSGPRHIVFHTVAKIAYLICELNSTIEVLIYDGWGQFEHLQTVSTLPEDHTGFNGTAAIRITKDGKFIYGSNRGNDSIAVYKTLADASLELVEIVPTNGKTPRDFTLSPDEKHLIVVHQDSDNATVFKRDAENGCLTELSHDFYVPEAVCVTFL” as the sequence, how does the protein production read?
**A.** failed

**Q.** Which protein production does the source give for “MENHSHANTHTDTRTDDKSTKIVRLLGLIGGALIALVIYYALNSQMPHIVEEIPKLSSLNYKAMPVVAGVAVLMGIWWMTEAIDLPATALLPLVLFSVFSVDQFASVSSSYASPIIFLFMGGFILALSMQKWNLHTRIALSIILLVGTSPRRLILGFMMATGFLSMWVSNTATAVMMLPVGMSVLQLVAKLVGKEDASNSWHQKEEITKAHGGIMSNIVHKGKDITQVIQEKTTIYRTNFSICLMLGIAYAASIGSLGTLIGTPPNALLAGYMKTAFNIEIDFAQWMVFGTPLAFIMLILAWLLLTYVIFPLKIKEIPGGKEVIRVELKKLGRLSQAEISVGIIFILASLGWIFLGVMLKSWGVKIDKIDSVIAMGVSALLFILPANHQGDRLIDWGVAKKLPWDVLLLFGGGLALSAQFSKTGLSLWIGHLVSGFSHLPILFIIVMVTLMVIFLTEITSNTATAAAFLPVIGGVAMGMGYENHQSLLLTIPVALSATCAFMLPVVTPPNAIAYGSGYVKITDMIKAGLWLNLVGVVLISTFSYFLVSLIFN” here?
**A.** failed

**Q.** For “MENKKMNLLLFSGDYDKALASLIIANAAREMEIEVTIFCAFWGLLLLRDPEKASQEDKSLYEQAFSSLTPREAEELPLSKMNLGGIGKKMLLEMMKEEKAPKLSDLLSGARKKEVKFYACQLSVEIMGFKKEELFPEVQIMDVKEYLKNALESDLQLFI”, which protein production is on record?
**A.** not failed

**Q.** For “MENLLARLLFAQWFPGLIQLKNYQKEWLVNDFRAAFSVVAVALPVAIAYAQLTGVSAIVGLYSCVLPMLVYALMGTSRQLIVGPDAATCAVIAAVVTPIAAGDPTKHWQLVMTMTAMTGIWCVLASRFKLGIFADFLSRPILLGLLNGVALTIIVGQFAKVVGLKYEQRYLLERLWEAPQRLAELHWPTVALSVATVVVYLVTKRYRPTWPAAMLAILVTTASVWLLHLQEMDVAVVGLTQGGFPQFQAPQFELGEVRELVVPALNLAIVSFVSMMLTARSFAAKNGYDIDANKEFQALGFANIASAFSQGFAISGADSRTAVNDANGGKSQLVSIVAAITIAIIAVFIYEPLQFIPIASLGVVLIIASLSLLDLKAIWILKTRDKDAFYLAIITFISVLVIGVIPGITLAVLLGLFQFLRIVMRPSDQLLGLDEKGTIRTIDETGKASPIPGMVIYRFNSPLTYFNAPYFKRRLLEHAEQNKDVSCVVVDAVSSFTHLDLSVMATLADIHEVLKKRGIRLVLAGRKRRLRQWCELTGISTSEGGILLRADMYLAIKLSGSYLSAVGEGIVPTVQKEPDLEQPPKPIPEVA”, which protein production is on record?
**A.** failed

**Q.** For “MENPDSAFLLFRNAPRLPLATMHTPLCGDSHQPDFAFRKPARDALLRPWNGRNHRCGLQDGREICQGQLPAHQKSYWSDCAALPRLFRAYGGAVVRGFLIVGNKAFTQPFSLNDLPGAGRMDVLCRCTSQALFISHGIRRDVEVYLLLLGPPSPPKSILIKGDEVRRMSPDERNVAGHIKKALAVECGKSWKKVHSGVYVSRKGLEELIEELSEKYSIIYLKEDGVDISNAQLPPNPLFVIGDHEGLTEEQEKVVERYAALKLSLSPLSLLAEQCVVIAHHHLDRLQF”, which protein production is on record?
**A.** failed

**Q.** For “MENRKLAVLIDADNAQSSLIAELLAEVAKYGTAIVKRAYGDWTTTQLKGWKEVLHQYAISPIQQFAYTKGKNSTDSALIIDAMDLLYTGNFDGFCLVSSDSDFTRLATRLREGGLTVIGLGEQSKTPRPFIAACDKFVFTEILRPAPPAKPKPETAATADKPKARSSRTRAKAAPHKEKHPLQDMFTSAIEAVARDSGWAELSAVGSYLAKNDPSFDPRNWGHGRLSQMVKKLDFLTVQESRNGSKLHSEIRLRHDGEAAVAEPAAPVETPQPSPSEEAAPPPRKKRSPRKKISPAGLEHHHHHH”, which protein production is on record?
**A.** failed

**Q.** Which protein production does the source give for “MENSGAYTFETIAREWHESNKRWSEDHRSRVLRYLELYIFPHIGSSDIRQLKTSHLLAPIKEVDTSGKHDVAQRLQQRVTAIMRYAVQNDYIDSNPASDMAGALSTTKARHYPLEHHHHHH” here?
**A.** not failed

**Q.** With “MENTKKSPTYVYALGGLEEIGKNTYVVEHEDEIILIDAGIKFANASLPGFDGTVANFDYLIKNNHKIHSLVVTHGHEDHIGGIPHILRHVKIKTIYAPTLAAKLIERRLSEYKDIKPPRIIVFEDESMYKTKYFEVDFYRVCHSIPDSFGICVKTPNGYIVTTGDFRFDFATAGDETNLAKISQISNRGISVLMCESTSAEIPGFSESERYVIDNIRDYMVNIKGRTFISTFASNLGRVEEIIAIAVGLNKKICIIGKSMEANIKTSRKLGYLNVPESSFITHKELPFYKDHEIVVILTGSQGEKMAALNVMANNNHSKITLKPSDTIILSSNPIPGNYAQVEAMVNKLYKLGLTVYENSPNKKIHASGHATRSEHQLMIKAINPSYLFPIHGEYKMFRALKQNAVDQGFDKDHVIIAPNGQKLQLLDGVLSHTNIYVDAEPKFINGYEISSKISKLLSERVVLSSDGILNLVLNADFKKAKLNSAVSISTRGCFFAKESTNLINKISNVAKSSLEEALAKKEFDEKKLKEIVSGNVKSIVWKWRKKNPIINVTIINNDLVEQFRKDNNYVEFIKQAEVEEIEQEVDIDDLISNGL” as the sequence, how does the protein production read?
**A.** failed
